The test deals with human IFNγ (human) (UniProt P01579). Kind of test: cell-based or functional assay.
Sequence of UniProt P01579 (P01579 24-166 limits assumed): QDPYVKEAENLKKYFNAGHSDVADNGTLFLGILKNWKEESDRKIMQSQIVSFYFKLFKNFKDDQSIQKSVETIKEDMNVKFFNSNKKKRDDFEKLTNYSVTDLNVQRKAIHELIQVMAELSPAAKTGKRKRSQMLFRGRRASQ

For “Amg-HL, anti-IFNγ scFv from AMG811 (heavy chain variable region to light chain variable region)”, the inhibition of IFNγ signaling at dilution 0.5 of supernatant, HEK-Blue IFNγ reporter cells amounted to 80%.

Values taken from patent publication US20230149465A1.
